Test results: PMC3501574

Molecular target: Biotinylated IL-2Rβ (human) (UniProt P14784)
Assay: SPR

Row | Kd | Substance
1 | 0.438 µM | IL-15 (1–114) (ligand)
2 | 0.003 µM | IL-15—IL-15Rα complex (IL-15 co-expressed with IL-15Rα (1–64))
